Laboratory results taken from patent publication US7012128B2, “Interaction between cyclin D1 and steroid receptor co-activators and uses thereof in assays” (TopoTarget UK Limited, priority 1998, dated 2006).

B1: D1: amino acids 1-202: carboxyl-terminal deletion mutant of cyclin D1 (protein, UniProt P24385 1-202, looked up, fragment)
chain: MEHQLLCCEVETIRRAYPDANLLNDRVLRAMLKAEETCAPSVSYFKCVQKEVLPSMRKIVATWMLEVCEEQKCEEEVFPLAMNYLDRFLSLEPVKKSRLQLLGATCMFVASKMKETIPLTAEKLCIYTDNSIRPEELLQMELLLVNKLKWNLAAMTPHDFIEHFLSKMPEAEENKQIIRKHAQTFVALCATDVKFISNPPSM
B2: cyclin D2: D-type cyclin lacking the leucine-rich motif (protein, UniProt P30279 1-289, looked up)
G1/S-specific cyclin-D2: MELLCHEVDPVRRAVRDRNLLRDDRVLQNLLTIEERYLPQCSYFKCVQKDIQPYMRRMVATWMLEVCEEQKCEEEVFPLAMNYLDRFLAGVPTPKSHLQLLGAVCMFLASKLKETSPLTAEKLCIYTDNSIKPQELLEWELVVLGKLKWNLAAVTPHDFIEHILRKLPQQREKLSLIRKHAQTFIALCATDFKFAMYPPSMIATGSVGAAICGLQQDEEVSSLTCDALTELLAKITNTDVDCLKACQEQIEAVLLNSLQQYRQDQRDGSKSEDELDQASTPTDVRDIDL
B3: cyclin D3: D-type cyclin lacking the leucine-rich motif (protein, UniProt P30281 1-292, looked up)
G1/S-specific cyclin-D3: MELLCCEGTRHAPRAGPDPRLLGDQRVLQSLLRLEERYVPRASYFQCVQREIKPHMRKMLAYWMLEVCEEQRCEEEVFPLAMNYLDRYLSCVPTRKAQLQLLGAVCMLLASKLRETTPLTIEKLCIYTDHAVSPRQLRDWEVLVLGKLKWDLAAVIAHDFLAFILHRLSLPRDRQALVKKHAQTFLALCATDYTFAMYPPSMIATGSIGAAVQGLGACSMSGDELTELLAGITGTEVDCLRACQEQIEAALRESLREASQTSSSPAPKAPRGSSSQGPSQTSTPTDVTAIHL

target: T1, GST-SRC1 (361-1441) and His-tagged cyclin D1 (Homo sapiens, UniProt P24385); assay: GST pull down peptide competition assay; format: binding; conditions: 0.3 μg and 3 μg peptide; Western blot with anti-cyclin D1 antibody
T1 construct: 6X histidine; made in house; host or cells: E. coli
Protocol: To ask whether the LXXLL (SEQ ID NO:6) motifs of SRC-1 are involved in cyclin D1 binding, a peptide competition experiment was performed. Peptides (0.3 μg and 3 μg) derived from the four LXXLL motifs of SRC1 were used in a GST pull down assay using GST-SRC1 (361-1441) and His-tagged cyclin D1 as described above. […] The reduction in binding was greater with 3 μg than with 0.3 μg of each of the LXXLL (SEQ ID NO:6) peptides with no reduction shown with the LXXAA (SEQ ID NO:21)mutant peptide. […] In another experiment, the ability of peptides to compete with cyclin D1 for binding to GST-SRC1 was investigated. Increasing amounts (100, 200 and 500 nM) of AASKHKQLSELLRSG (SEQ ID NO:1) (LXXLL (SEQ ID NO:6)) and AASKHKQLSEAARSG (SEQ ID NO:23) (LXXAA) (SEQ ID NO:21) peptides were used in a GST pull down assay using GST-SRC1 (361-1441) and His-tagged cycliin D1.
GST protein, GST-SRC1 fusion protein and His-tagged cyclin D1 protein were purified as described previously (Zwijsen et al., 1997). Binding between 500 ng GST-SRC1 and 100 ng His-D1 was performed in binding buffer (50 mM NaCl, 50 mM HEPES-KOH pH 7.6, […] 0.1% (w/v) NP40, 0.1 mM PMSF and 0.5% charcoal-stripped serum) bound to glutathione-sepharose for 1 hour at 4° C. The beads were washed three times and bound proteins were eluted by boiling for 10 minutes in sample buffer and separated on 10% SDS-PAGE. The binding of His-cyclin D1 to GST-SRC1 was detected by Western blot analysis using monoclonal antibodies directed against cyclin D1 (DCS-6, Neomarkers). For testing a ternary complex, a baculovirus-produced ER (750 ng, Pan Vera) was added to GST-SRC1 (500 ng) and His-D1 (100 ng) in the presence or absence of 1 μM 17β-estradiol using similar conditions as described above. In Western blot analysis monoclonal antibodies directed against cyclin D1 (DCS-6, Neomarkers) and ER (LH2, Novocastra) were used.
For the peptide inhibition assay using the peptides shown in FIG. 4(B), 150 ng GST/GST-SRC1 and 50 ng His-tagged cyclin D1 were used. […]

T1 sequence (P24385 whole entry): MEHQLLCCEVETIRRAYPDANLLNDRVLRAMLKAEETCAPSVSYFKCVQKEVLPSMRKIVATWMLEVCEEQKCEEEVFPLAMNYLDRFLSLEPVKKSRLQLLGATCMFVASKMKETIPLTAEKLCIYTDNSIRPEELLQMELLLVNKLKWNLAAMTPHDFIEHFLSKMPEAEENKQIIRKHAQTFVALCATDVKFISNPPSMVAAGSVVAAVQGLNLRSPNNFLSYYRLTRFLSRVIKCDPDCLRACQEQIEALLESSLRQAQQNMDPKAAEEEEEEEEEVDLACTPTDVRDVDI

Row | interference with binding of cyclin D1 to SRC-1 | Molecule
1 | no reduction | LXXAA mutant peptide: LXXAA mutant control peptide of the SRC-1 peptide competition experiment, FIG. 4B (PQAQQKSLQQAAT; listed as Homo sapiens) [reference compound]
2 | best competitor | P3: peptide which corresponds to the third of the three centrally located LXXLL motifs of SRC-1 (KDHQLLRYLLDKDE; listed as Homo sapiens)

same assay, conditions: 100, 200 and 500 nM peptide

Row | Molecule | competition with cyclin D1 for binding to GST-SRC1
3 | AASKHKQLSELLRSG [LXXLL peptide derived from p300 amino acid 74-88] | Binding was reduced with increasing concentration

system: wild type ER; assay: ERE-TATA-luciferase transactivation of wild type ER in COS-7 cells; format: cell-based; conditions: COS-7, wild type ER, presence of ligand
Protocol: FIG. 1. Mapping of the region of cyclin D1 required for ER-mediated transactivation. • (A) The effect of cyclin D1 deletion mutants on ER activation in the presence of ligand. The cyclin D1 derivatives used in this study are shown in the left panel; right side of Figure represents the relative capacity of the mutants to potentiate ERE-dependent transcription. ER-negative COS-7 cells were transfected with expression vectors for wild type ER (200 ng), cyclin D1 or cyclin D1 mutants (2.5 μg), an internal control §-galactosidase plasmid (0.5 μg) and an ERE-TATA-luciferase reporter (3 μg). The effect on ER transactivation of wild type cyclin D1 was set to 100%. These studies were performed in three separate experiments and expressed as mean values with standard deviation less then […]. The alignment of leucine-rich motif of ER with D-type cyclins are shown on the bottom; the leucine-rich motif in cyclin D1 is indicated as a dark box. The identifiers for the sequences shown are as follows: Cyclin D1 (SEQ ID NO:11), Estrogen receptor (SEQ ID NO:12), the Cyclin D2 (SEQ ID NO:13), and the Cyclin D3 (SEQ ID NO:14). • (B) ER activation by D-type cyclins, cyclin D1 L254/255A point mutant (D1-LALA) and SRC-1 in the presence of ligand. COS-7 cells were transfected with D-type cyclin expression vectors, cyclin D1 Leucine-to-Alanine point mutant (D1-LALA) or SRC-1 expression vector together with wild type ER expression vector, an ERE-TATA-luciferase reporter plasmid and the internal control β-galactosidase construct. Data are expressed as relative luciferase activity compared with basal ERE-luciferase activity of wild type ER and are normalized for transfection efficiencies.
FIG. 3. Role of coactivators in cyclin D1—induced transactivation. • (A) Effect of a dominant negative form of SRC-1 (SRC1-DN) on ER transactivation. SRC1-DN encoding amino acids 1245-1441 of SRC-1 (1, 2.5 and 5 μg) was introduced by transient transfection together with wild type ER (200 ng) and was tested for its ability to modulate ERE-dependent transcription. • (B) Effect of SRCI-DN on SRC-1 and TIF 2 mediated ER transactivation. SRC-1 (3 μg) or TIF-2 (3 μg) were transfected with SRC1-DN (3 μg) and tested for ER transactivation. • (C) Effect of SRC1-DN on cyclin D1-induced transactivation of ER 1-535 mutant. Cyclin D1 was cotransfected with SRC1-DN (1, 2.5, 5 μg) and tested for its effect on an ER harboring a deletion of coactivator binding site in helix 12 (ER 1-535). • (D) Effect of SRC1-DN on cyclin D1-induced transactivation of ER L543/544A mutant. Cyclin D1 and SRC1-DN (1, 2.5, 5 gg) were transfected and tested for the activity of ER helix 12 point mutant (ER L543/544A). The transient transfections (A-C) were performed in COS-7 cells, which were maintained in DMEM with 10 nM ligand. The relative activity was calculated by normalizing to the internal control and was divided by luciferase activity of ER (mutant) in the presence of ligand. The transfection for each set of conditions were done at least in four independent experiments and expressed as average ±SD.
To study how cyclin D1 activates ER, cyclin D1 deletion mutants were tested for their effect on ER-transactivation. COS-7 cells were transfected with cyclin D1 mutants, together with ER and a luciferase reporter gene construct driven by a minimal TATA promoter linked to an estrogen response element (ERE). […] This part of the protein is not involved in CDK interaction and is poorly conserved among the different cyclins. […] To test the relevance of this leucine-rich domain of cyclin D1 in ER activation, a cyclin D1 mutant was constructed in which leucines 254 and 255 were mutated to alanines (D1 L254/255A). This mutation in cyclin D1 is similar to the mutation in ER (ER L543/544A) that interferes with coactivator binding to AF-2 (Danielian et al., 1992). […]

Row | Molecule | ER transactivation capacity
4 | D1: amino acids 1-247: carboxyl-terminal deletion mutant of cyclin D1 | lack ER transactivation capacity
5 | D1: amino acids 1-267: cyclin D1 mutant lacking the extreme carboxyl-terminus | partially retained ER activation
6 | D1: amino acids 91-295: amino-terminal deletion mutant of cyclin D1 | still able to activate ER
7 | B1 | lack ER transactivation capacity
8 | B2 | behaved similar-to the D1 L254/255A mutant
9 | B3 | behaved similar-to the D1 L254/255A mutant
